No end group written: not given here. *: point of attachment. Biotin = O=C1N[C@H]2[C@H](CS[C@H]2CCCCC(=O)*)N1
Assays:
Assay in all cases: peptide ELISA on streptavidin plate
ET140-p24 = biological target: T1, ET140-p24 (human, cysteine pairing not given here)
T1 construct: also called peptide 24
T1 peptide: Biotin-SGSGQLRCSSNTPPLTCQR
Description: (§1) The peptides were coated onto Streptavidin plates at 2 ug/mL in PBST (PBS+0.05% Tween-20). After washing and blocking with 3% BSA. […] “mIgG1” used in all Examples represents that the variable region is fully human and the Fc part is mouse IgG1. Then HRP anti-mouse IgG detection antibody was added to each well. Finally, the color was developed using TMB substrate. A450 was recorded for data analysis.

ET140-p30 = biological target: T2, ET140-p30 (human, cysteine pairing not given here)
T2 construct: also called peptide 30
T2 peptide: Biotin-SGSGNTPPLTCQRYCNASV
Description: as §1

ET140-p16 = biological target: T3, ET140-p16 (human, cysteine pairing not given here)
T3 construct: also called peptide 16
T3 peptide: Biotin-SGSGLLHACIPCQLRCSSN
Description: as §1

ET140-p38 = biological target: T4, ET140-p38 (human)
T4 construct: also called peptide 38
T4 peptide: Biotin-SGSGRYCNASVTNSVKGTN
Description: as §1

ET140-p37 = biological target: T5, ET140-p37 (human)
T5 construct: also called peptide 37
T5 peptide: Biotin-SGSGQRYCNASVTNSVKGT
Description: as §1

ET140-p31 = biological target: T6, ET140-p31 (human, cysteine pairing not given here)
T6 construct: also called peptide 31
T6 peptide: Biotin-SGSGTPPLTCQRYCNASVT
Description: as §1

ET140-p2 = biological target: T7, ET140-p2 (human)
T7 construct: also called peptide 2
T7 peptide: Biotin-SGSGQMAGQCSQNEYFDSL
Description: as §1

ET140-p36 = biological target: T8, ET140-p36 (human, cysteine pairing not given here)
T8 construct: also called peptide 36
T8 peptide: Biotin-SGSGCQRYCNASVTNSVKG
Description: as §1

ET140-p4 = biological target: T9, ET140-p4 (human)
T9 construct: also called peptide 4
T9 peptide: Biotin-SGSGAGQCSQNEYFDSLLH
Description: as §1

ET140-p32 = biological target: T10, ET140-p32 (human, cysteine pairing not given here)
T10 construct: also called peptide 32
T10 peptide: Biotin-SGSGPPLTCQRYCNASVTN
Description: as §1

ET140-p21 = biological target: T11, ET140-p21 (human, cysteine pairing not given here)
T11 construct: also called peptide 21
T11 peptide: Biotin-SGSGIPCQLRCSSNTPPLT
Description: as §1

ET140-p29 = biological target: T12, ET140-p29 (human, cysteine pairing not given here)
T12 construct: also called peptide 29
T12 peptide: Biotin-SGSGSNTPPLTCQRYCNAS
Description: as §1

ET140-p28 = biological target: T13, ET140-p28 (human, cysteine pairing not given here)
T13 construct: also called peptide 28
T13 peptide: Biotin-SGSGSSNTPPLTCQRYCNA
Description: as §1

ET140-p14 = biological target: T14, ET140-p14 (human, cysteine pairing not given here)
T14 construct: also called peptide 14
T14 peptide: Biotin-SGSGDSLLHACIPCQLRCS
Description: as §1

ET140-p19 = biological target: T15, ET140-p19 (human, cysteine pairing not given here)
T15 construct: also called peptide 19
T15 peptide: Biotin-SGSGACIPCQLRCSSNTPP
Description: as §1

ET140-p22 = biological target: T16, ET140-p22 (human, cysteine pairing not given here)
T16 construct: also called peptide 22
T16 peptide: Biotin-SGSGPCQLRCSSNTPPLTC
Description: as §1

ET140-p33 = biological target: T17, ET140-p33 (human, cysteine pairing not given here)
T17 construct: also called peptide 33
T17 peptide: Biotin-SGSGPLTCQRYCNASVTNS
Description: as §1

ET140-p27 = biological target: T18, ET140-p27 (human, cysteine pairing not given here)
T18 construct: also called peptide 27
T18 peptide: Biotin-SGSGCSSNTPPLTCQRYCN
Description: as §1

ET140-p39 = biological target: T19, ET140-p39 (human)
T19 construct: also called peptide 39
T19 peptide: Biotin-SGSGYCNASVTNSVKGTNA
Description: as §1

ET140-p23 = biological target: T20, ET140-p23 (human, cysteine pairing not given here)
T20 construct: also called peptide 23
T20 peptide: Biotin-SGSGCQLRCSSNTPPLTCQ
Description: as §1

ET140-p20 = biological target: T21, ET140-p20 (human, cysteine pairing not given here)
T21 construct: also called peptide 20
T21 peptide: Biotin-SGSGCIPCQLRCSSNTPPL
Description: as §1

ET140-p34 = biological target: T22, ET140-p34 (human, cysteine pairing not given here)
T22 construct: also called peptide 34
T22 peptide: Biotin-SGSGLTCQRYCNASVTNSV
Description: as §1

Measured: binding result

B1: ET140-153 mIgG1 (antibody, V domains shown)
VH: QVQLVQSGAEVKKPGSSVKVSCKASGGTFSSYAISWVRQAPGQGLEWMGRIIPILGIANYAQKFQGRVTITADKSTSTAYMELSSLRSEDTAVYYCARGGYYSHDMWSEDWGQGTLVTVSS
VL: LPVLTQPPSASGTPGQRVTISCSGRSSNIGSNSVNWYRQLPGAAPKLLIYSNNQRPPGVPVRFSGSKSGTSASLAISGLQSEDEATYYCATWDDNLNVHYVFGTGTKVTVLG
notes: also called ET140-3 mIgG1; ET140-3
no binding (tested: 1 ug/mL): ET140-p24 | ET140-p30 | ET140-p16 | ET140-p38 | ET140-p37 | ET140-p31 | ET140-p2 | ET140-p36 | ET140-p4 | ET140-p32 | ET140-p21 | ET140-p29 | ET140-p28 | ET140-p14 | ET140-p19 | ET140-p22 | ET140-p33 | ET140-p27 | ET140-p39 | ET140-p23 | ET140-p20 | ET140-p34

Source: patent US20210346432A1 (Memorial Sloan Kettering, published 2021)
